# Molecular target: Fab with CK (kappa) light chain constant domain
# Test: ELISA
substance,measurement,value
wild type Protein G (wild-type non-modified protein G polypeptide),fold lower EC50 for CK than for Cλ,7 fold
